Results as given in patent US20240287165A1 (GENERAL HOSPITAL, published 2024).
Residue numbers refer to the chain shown, from its start. Read-outs that look alike come from different tables or passages of the source.

Legend:
[1] = biological target: full-length ApoE3ch (ApoE3 Christchurch R136S) mutant recombinant protein (His-tagged) (human) (UniProt P02649); assay: ELISA, negative control
[2] = biological target: ApoEch peptide KLH-…-CONH2 (human); assay: ELISA, negative control
[3] = biological target: wild type ApoE peptide KLH-…-CONH2 (human); assay: ELISA, negative control
[4] = biological target: full-length wild type human ApoE3 recombinant protein (His-tagged) (human) (UniProt P02649); assay: ELISA, negative control
[5] = biological target: T1, full-length ApoE3ch (ApoE3 Christchurch R136S) mutant recombinant protein (His-tagged) (human, UniProt P02649 19-317); assay: ELISA, His-tagged ApoE protein on Ni-NTA plate, antibody diluted 1:1000 to 1:32000, anti-mouse HRP, absorbance 450 nm; x axis (printed 'Antibody Concentation') counts the dilution factor
T1 construct: also called ApoE3ch full length protein; APOE3ch Mutant; not shown: histidine tag
Experimental: (§1) ELISA: Antibodies designed against the heparin-binding domain of ApoE were tested for their affinity to ApoE3 and ApoEch mutant recombinant proteins using ELISA. The Ni-NTA HisSorb Plates (Qiagen) were washed 3 times with wash buffer 1 (DY008). The ApoE recombinant proteins were suspended in buffer (DY008) to give a final concentration of 0.5 μg/ml. The plates were incubated with 200 μl of ApoE recombinant proteins for 2 hours, and washed 5 times with 1x wash buffer (DY008). The plates were then incubated with antibodies at a serial dilution of from 1:1,000 to 1:32,000 for overnight at 4° C. The plate was then washed 5 times in 1X wash buffer (DY008), and incubated with anti-mouse HRP (Abcam; ab97046, 1:10,000) for 45 minutes, followed by 5 washes in 1x wash buffer to ensure complete removal of unbound secondary antibody. The sulfuric acid from the ELISA reagent kit (DY008) was warmed to 37° C. 100 μl of tetramethylbenzidine (Millipore) was added to initiate the detection phase of the reaction. After a 5-min incubation, sulfuric acid was added to terminate the reaction. The plate was then read using Synery 2 microplate reader (BioTek Instrument. Inc) and the Gen5 version1.11 software).
(§2) To generate monoclonal antibodies against the heparin-binding domain of ApoE, mice were immunized using the wild type ApoE peptide: KLH-[…]-CONH₂ (SEQ ID NO:54), and the ApoEch peptide: KLH-[…]-CONH₂ (SEQ ID NO:55). A cysteine residue was added at the N-terminus to facilitate conjugation of the peptides. Cell fusions were obtained from positive clones and cell supernatants tested for activity against the wild type and mutant peptides and proteins. Seven antibodies generated were analyzed by ELISA as examples, as described in the materials and methods section.

[6] = biological target: T2, C-terminal domain ApoE3ch mutant recombinant protein (amino acids 125 to 299) (human, UniProt P02649 143-317); assay: as above
T2 construct: also called C-terminal ApoE3ch mutant protein; APOE3 mutant c terminal protein; not shown: histidine tag
T2 chain: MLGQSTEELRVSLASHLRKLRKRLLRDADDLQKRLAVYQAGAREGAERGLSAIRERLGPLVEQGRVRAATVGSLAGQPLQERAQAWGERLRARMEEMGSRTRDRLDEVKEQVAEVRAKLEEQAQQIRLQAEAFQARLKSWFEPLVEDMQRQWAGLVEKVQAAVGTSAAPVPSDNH
Experimental: as §1, §2

[7] = biological target: T3, bovine serum albumin (BSA) (bovine, UniProt P02769 25-607); assay: ELISA, BSA as control coat, antibody diluted 1:1000 to 1:32000, absorbance 450 nm; x axis counts the dilution factor
T3 sequence (P02769 25-607 limits assumed): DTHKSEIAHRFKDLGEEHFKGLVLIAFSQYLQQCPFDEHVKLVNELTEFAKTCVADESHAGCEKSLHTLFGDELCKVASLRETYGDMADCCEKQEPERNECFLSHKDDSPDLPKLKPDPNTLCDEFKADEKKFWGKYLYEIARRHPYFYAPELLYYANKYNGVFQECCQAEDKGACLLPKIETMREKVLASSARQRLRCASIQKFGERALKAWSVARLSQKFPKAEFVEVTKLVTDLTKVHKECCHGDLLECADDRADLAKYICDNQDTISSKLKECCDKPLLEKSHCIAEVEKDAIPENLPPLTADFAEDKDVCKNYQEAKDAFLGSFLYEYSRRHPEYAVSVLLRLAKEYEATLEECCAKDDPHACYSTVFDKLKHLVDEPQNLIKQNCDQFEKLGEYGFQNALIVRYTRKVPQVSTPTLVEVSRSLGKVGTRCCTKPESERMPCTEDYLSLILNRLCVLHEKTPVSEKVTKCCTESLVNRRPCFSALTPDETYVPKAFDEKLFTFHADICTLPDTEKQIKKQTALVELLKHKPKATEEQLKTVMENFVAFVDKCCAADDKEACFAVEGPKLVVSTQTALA
Experimental: as §1, with “100 μl of tetramethylbenzidine (Millipore) was added to initiate the detection phase of the reaction. After a 5-min incubation, sulfuric acid was added to terminate the reaction.” left out
To generate monoclonal antibodies against the heparin-binding domain of ApoE, mice were immunized using the wild type ApoE peptide: KLH-[…]-CONH₂ (SEQ ID NO:54), and the ApoEch peptide: KLH-[…]-CONH₂ (SEQ ID NO:55). […] Seven antibodies generated were analyzed by ELISA as examples, as described in the materials and methods section.

[8] = biological target: T4, ApoEch peptide KLH-CTEELRVSLASHLRK-CONH2 (human, not fully specified; C-terminal amide (CONH2); printed with KLH on the added N-terminal cysteine); assay: ELISA of the monoclonal antibody purified from cloned hybridoma, O.D. 450 nm against antibody concentration (ng/mL, log axis)
T4 construct: also called Mut peptide; mutant ApoE peptide
T4 peptide: CTEELRVSLASHLRK

[9] = biological target: T5, C-terminal wild type ApoE3 recombinant protein (human, UniProt P02649 143-317, limits assumed); assay: ELISA, His-tagged ApoE protein on Ni-NTA plate, antibody diluted 1:1000 to 1:32000, absorbance 450 nm against dilution factor
T5 construct: also called C-terminal form of wild type ApoE3; c-terminus of the APOE3WT protein; not shown: histidine tag
Experimental: Antibodies designed against the heparin binding domain of APOE were tested for affinity to APOE3 and APOEch mutant recombinant protein using an ELISA. The Ni-NTA HisSorb Plates (Qiagen) plates were washed 3 times with wash buffer 1 (DY008), the APOE recombinant proteins were suspended in buffer (DY008) to give a final concentration of 0.5 μg/ml. The plates were incubated with 200 μl for 2 hours. The plate was then washed 5 times with 1x wash buffer (DY008), the plates were then incubated with antibodies in a serial dilution series from 1:1000 to 1:32000 and incubated overnight at 4° C. The plate is then washed 5 times in 1X wash buffer (DY008). The plates were then incubated with Anti-mouse HRP (Abcam; ab97046) (1:10000) for 45 minutes. The plate was then washed 5 times in 1x wash buffer to ensure complete removal of unbound secondary antibody. The Sulfuric acid from the ELISA reagent kit (DY008) was warmed to 37° C. prior to addition of 100 μl of tetramethylbenzidine (Millipore) initiating the detection phase of the reaction. […] The plate was then read using Synery 2 microplate reader (BioTek Instrument. Inc) and the Gen5 version1.11 software).
The 19G10-2 antibody was further evaluated using Heparin-Affinity chromatography, Western Blotting, Quantitative ELISA for chromatography fractions, and ELISA for binding analyses. […]

[10] = biological target: T4, ApoEch peptide KLH-CTEELRVSLASHLRK-CONH2; assay: ELISA of the monoclonal antibody purified from cloned hybridoma, O.D. 450 nm against antibody concentration (ng/mL, log axis)
[11] = biological target: T6, wild type ApoE peptide KLH-CTEELRVRLASHLRK-CONH2 (human, not fully specified; C-terminal amide (CONH2); printed with KLH on the added N-terminal cysteine); assay: ELISA, parental hybridoma clone
T6 construct: also called WT peptide; ApoE3 WT peptide
T6 peptide: CTEELRVRLASHLRK

[12] = biological target: T4, ApoEch peptide KLH-CTEELRVSLASHLRK-CONH2; assay: ELISA, parental hybridoma clone
[13] = biological target: T1, full-length ApoE3ch (ApoE3 Christchurch …); assay: ELISA, parental hybridoma clone
[14] = biological target: T7, full-length wild type human ApoE3 recombinant protein (His-tagged) (human, UniProt P02649 19-317); assay: ELISA, parental hybridoma clone
T7 construct: Recombinant protein from Innovagen; also called ApoE3 WT full-length protein; APOE3 WT; not shown: histidine tag

[15] = biological target: T1, full-length ApoE3ch (ApoE3 Christchurch …); assay: ELISA subclones analysis, 7C11-1 serum on mutant protein, O.D. 450 nm against dilution factor
[16] = biological target: T3, bovine serum albumin (BSA); assay: ELISA, BSA as control coat, antibody diluted 1:1000 to 1:32000, absorbance 450 nm; x axis counts the dilution factor; remark: listed apart in the source

Neg. ctrl (Table 6)
absorbance (ELISA) [1]: 0.048 absorbance | absorbance (ELISA) [2]: 0.056 absorbance | absorbance (ELISA) [3]: 0.068 absorbance | absorbance (ELISA) [4]: 0.051 absorbance

B1: antibody 19G10-2 (antibody, V domains shown)
VH: EVQLQQSGAELVRPGALVKLSCKASGFNIKDYHMHWVKERPEQGLEWIGWIDPENGNTMYDPKFQGKASITADTSSNTAYLQLSSLTSEDTAVYYCVRGTARASFDYWGQGTTLTVSS
VL: DIVLTQSPASLAVSLGQRATISCKASQSVDYDGDSYMNWYQQKSGQPPKLLIYAASNLESGIPARFSGSGSGTDFTLNIHPVEEEDAATYYCQQSNVDPWTFGGGTKLEIK
notes: Tested as serum, as hybridoma supernatant and as purified monoclonal; also called 19G10-2 antibody serum; monoclonal antibody hybridoma supernatant 19G10-2
binding result [5]: binds | binding result [6]: binds | binding result [7]: no binding (tested: 1:1000 dilution) | binding result [8]: binds | binding result [9]: no binding (tested: 1:1000 dilution)

B2: antibody 25F1-2 (antibody, V domains shown)
VH: B1 VH with L20W, M34I, E39Q, E46D, N55I, G56D, N57K, M59L, S69R, V97A
VL: B1 VL with S35T, S44P, A54T, E85V, V97E
notes: also called 25F1-2 antibody serum; monoclonal antibody hybridoma supernatant 25F1-2
binding result [5]: binds | binding result [6]: binds | binding result [10]: binds | binding result [7]: no binding (tested: 1:1000 dilution)

B3: antibody 7C11-1 (antibody, V domains shown)
VH: EVKLVESGGGLVQPGGSLKLSCAASGFTFSRYTMSWVRQTPEKRLEWVAKIRNVGGITYYPDTVKGRFTISRDNAKNTLYLQMSSLKSEDTAMYYCARHYYGSEDYFDYWGQGTTLTVSS
VL: B1 VL with I2N, S44P, L50V, L51F, D74N, V97E
notes: The limits without signal peptide (20-139, 21-131) come from CLM-00005; also called 7C11-1 serum
absorbance (ELISA) [11]: 1.28 absorbance | absorbance (ELISA) [12]: 0.058 absorbance | absorbance (ELISA) [13]: 0.055 absorbance | absorbance (ELISA) [14]: 0.689 absorbance | binding result [15]: no binding (tested: 1:10 dilution)

B4: mouse antibody 1343ab (antibody, mouse IgG1, kappa, V domains shown)
VH: EVQLQQSGAELVRPGALVKLSCKASGFNIKDYHLHWVKQRPEQGLEWIGWIDPENGNVIYDPKFQGKATMTVVTSSNTAYLQLRSLTSEDTAVYFCTRGTARASFDYWGQGTSLTVSS
VL: DIVLTQSPASLAVSLGQRATISCKASQSVDYDGENYMNWYQQKPGQSPKLLIYVASNLESGIPARFSGSGSGTDFTLNIHPVEEEDAATYYCQQSNLDPWTFGGGTKLEIKR
modifications: N-linked glycosylation detected on heavy chain constant region N at 292; loss of C-terminal lysine observed
notes: also called 23B2
binding result [16]: no binding (tested: 1:1000 dilution)
